{"source": "paper doi:10.1101/467423", "about": "(bioRxiv, 2018)", "proteins": {"B1": {"name": "Plasmodium falciparum actin I K270M mutant (natural protein)", "chain": "not shown"}}, "biological_target": "the molecule itself", "assay": "negative-stain electron microscopy"}
{"protein": "B1", "values": [{"measurement": "binding result", "value": "binds"}]}
